From patent publication US20230002728A1, “STEM CELL FATE ENGINEERING METHODS” (Wisconsin Alumni Research Foundation, priority 2021, published 2023)

What was measured:
Assay type in all cases: cell-based, human
[1] = test system: H9 hESCs; assay: Localized mesendoderm differentiation of hPSCs on adsorbed BMP4 patterns (BRACHYURY immunostaining, day 2); details: for mesendoderm differentiation (BRA expression): two days in mTeSR1
Procedure: […] For glass surfaces, 1.5 ng/μl BMP4 solution was used. 5 ng/μl noggin solution was placed as a droplet to show an inhibitory effect of noggin on BMP4-induced mesendoderm differentiation. After washing, substrate was coated with Matrigel® for 2 hours as described above. Glass was coated with Matrigel® overnight. 0.025 mg/ml Synthemax (Corning, 3535) (final concentration, diluted in water) was added to a washed TC-treated plate and the plate was incubated for 2 hours at room temperature prior to cell seeding. 5 μg/ml truncated recombinant human vitronectin (Gibco, A14700) diluted in PBS was added to a washed TC-treated plate and the plate was incubated for 1 hour at room temperature prior to cell seeding. After ECM coating, the ECM solution was aspirated and hPSCs were singularized using Accutase (10 min incubation at 37° C.), resuspended in mTeSR1 supplemented with 5 μM Y-27632, and seeded at 5×10^5 to about 1×10^6 cells/cm^2 on coated substrates (day 0). On the next day (day 1), medium was changed with fresh mTeSR1. […]
For immunostaining of other protein markers, cells were fixed in 4% paraformaldehyde (Electron Microscopy Sciences, 15710-S) in PBS for 15 min at room temperature, washed with PBS three times, and incubated in diluted primary antibodies in 5% nonfat dry milk (Santa Cruz Biotechnology, sc-2324)/0.4% Triton X-100 (Fisher Scientific, BP151-500) PBS overnight at 4° C. […] After secondary antibody staining, the cells were washed with PBS three times, incubated in 2 μg/ml Hoechst 33342 diluted in PBS for 5 min at room temperature, washed with PBS two times, and analyzed under the fluorescence microscope. […]
Next, BMP4 solution was placed on TC-treated plates in various patterns (droplet, letters, circle, heart, and star), and hPSCs seeded onto the substrate in mTeSR1 maintenance medium. […] Since the presence of inhibitory morphogens is also important in developmental patterning, a BMP inhibitor, noggin, was evaluated for antagonism to localized BMP4-induced mesendoderm differentiation. […]

[2] = test system: H9 hESCs; assay: Localized cardiomyocyte differentiation on BMP4 patterns (cTnT immunostaining, day 8); details: 2.5 ng/μl BMP4 pattern, 5 μM IWP2 at day 3, day 8
Procedure: For localized cardiomyocyte (CM) differentiation, 2.5 ng/μl BMP4 solution was placed in PDMS stencil masks on a TC-treated plate. Matrigel® coating and hPSC seeding was performed as described above. At day 1 and day 2, medium was changed with fresh RPMI B27−. Afterwards, CM differentiation was performed based on the GiWi protocol (Lian et al. (2013) Nature protocols 8, 162-175). At day 3, cells were treated with 5 μM IWP2 in fresh RPMI B27−. At day 5, medium was changed with fresh RPMI B27−. At day 7, medium was changed with fresh RPMI B27+. At day 8, a beating phenotype of patterned CM derived from H9-hTNNT2-GFP hESC was recorded using a fluorescence microscope (Nikon, Eclipse Ti2-E) equipped with a heating stage top incubator (Tokai Hit, Tokai Hit STX Series Stage Top Incubator System). Cells were also immunostained for analysis at day 8.
Based on the results showing localized mesoderm differentiation on BMP-patterned substrates, mesodermal cells were examined to see if they could be further differentiated on these patterns into cardiomyocytes, a specialized mesodermal cell type. BMP4 patterns were used to direct mesoderm and Wnt inhibition by addition of IWP2 to the culture medium at day 3 to specify cardiac mesoderm and achieve patterned CM differentiation (FIG. 4A). The H9-hTNNT2-GFP hESC reporter line was used to visualize patterning of CMs in live cells. […]

[3] = test system: H9 hESC-derived cardiac progenitor cells (CPCs); assay: Localized EpiC differentiation of hPSC-derived cardiac progenitors on morphogen droplets (WT1 immunostaining); details: droplets on TC-coated PS plate, 7d after cardiac progenitor seeding
Procedure: For localized EpiC differentiation, BMP4 (2 ng/μl)+Wnt3a (40 ng/μl) solution was placed in PDMS stencil masks either on a TC-treated plate or an ibidi 35 mm polymer dish. Matrigel® coating was performed as described above. Cryopreserved CPCs were thawed and seeded at 500,000-550,000 cells/cm^2 in LaSR medium (advanced DMEM/F12 (Gibco, 12634-010) supplemented with 60 μg/ml ascorbic acid (Sigma, A8960) and 2.5 mM Glutamax (Gibco, 35050-061)) supplemented with 5 μM Y-27632). Medium was changed daily with fresh LaSR medium until analysis. Time lapse imaging of CPCs derived from H9-hTNNT2-GFP hESC during localized EpiC differentiation was performed using a fluorescence microscope equipped with a heating stage top incubator. 18 days after CPC seeding, cells cultured on an ibidi polymer dish were immunostained and imaged using a confocal microscope (Nikon, A1R-SI+) for the analysis of sarcomere structure.
Spatial organization of cell fate commitment is important throughout development. […] These cardiac progenitors can further differentiate into CMs without any specific external signaling factors and can also differentiate into EpiCs upon activation of canonical Wnt signaling (Bao et al. (2016) Nature biomed. Eng. 1, 1-12).

B1: BMP4: human recombinant BMP4 (Invitrogen, PHC9534), morphogen adsorbed on the substrate (protein, UniProt P12644 293-408, looked up)
Bone morphogenetic protein 4: SPKHHSQRARKKNKNCRRHSLYVDFSDVGWNDWIVAPPGYQAFYCHGDCPFPLADHLNSTNHAIVQTLVNSVNSSIPKACCVPTELSAISMLYLDEYDKVVLKNYQEMVVEGCGCR
In the case of B1, the “mesendoderm differentiation (BRA expression)” value ([1]; BMP4 droplets adsorbed on TC-treated PS, Matrigel coating) is reported as “induced localized mesendoderm differentiation”, the “mesendoderm differentiation (BRA expression)” value ([1]; BMP4 droplets adsorbed on untreated PS surface) is reported as “none of the BMP4 droplets induced mesendoderm differentiation” and the “cell attachment on the patterned area” value ([1]; untreated PS surface, 0.1, 0.2, and 2.5 ng/ul BMP4 droplets) is reported as “partially or fully inhibited cell attachment”. For the same molecule, the “cardiomyocyte differentiation (cTnT)” value [2] was “localization of CMs to the patterned area” and the “EpiC differentiation (WT1 expression)” value [3] was “limited if any EpiC differentiation”.
